Data reported in patent US20170056521A1.

Target: human HLA-A2 (human)
Experiment: single colony ELISA; soluble scFv supernatant on coated HLA-A2 (0.5 µg/well), anti-E-tag-HRP detection

B1: scFv clone 3E10 (scFv)
scFv: DIQMTQSPSSLSASVGDRVTITCRASQDVFFFVAWYQQKPGKAPKLLIYGPPGLYSGVPSRFSGSGSGTDFTLTISSLQPEDFATYYCQQYFSFPITFGQGTKVEIKRGGGGSIEGRSGGGGSEVQLVESGGGLVQPGGSLRLSCAASGFTISNGGIHWVRQAPGKGLEWVASIWPSGGYTSYADSVKGRFTISADTSKNTAYLQMNSLRAEDTAVYYCARFGVNYHGIMDYWGQGTLVTVSS
OD450: 1.3 OD450
